These results are taken from the supplement of paper PMC10567573.

The chains are these.
B1: TRIM39 (parent)
chain: YPCVLATEGFTSGRHYWEVEVGDK
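Note: lentivirally expressed fusions sorted by FACS into six bins by GFP to DsRed ratio, PSI derived from sequencing read proportions per bin multiplied by bin number.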

The variants in the data set derive from B1. Briefly: protein stability index of a GFP-peptide fusion (GPS, HEK-293T) (PSI 1-6); higher = more stable. As to conditions: c terminus: a fixed tail appended.
Regarding YPCWLATEGFTSGRHYWEVEVGDK, the protein stability index came to 1.74.
For the variant YPCNLATEGFTSGRHYWEVEVGDK, the protein stability index worked out at 1.85.
Regarding YPCGLATEGFTSGRHYWEVEVGDK, the protein stability index turned out to be 2.69.
On to YPCSLATEGFTSGRHYWEVEVGDK, for which the protein stability index stood at 1.61.
For YPCLLATEGFTSGRHYWEVEVGDK the value was 2.13; for YPCMLATEGFTSGRHYWEVEVGDK, 2.06; for YPCALATEGFTSGRHYWEVEVGDK, 1.73.
As for YPCDLATEGFTSGRHYWEVEVGDK, the protein stability index stood at 2.54.
For YPCRLATEGFTSGRHYWEVEVGDK the value was 1.78.
For YPCILATEGFTSGRHYWEVEVGDK the value was 1.85; for YPCPLATEGFTSGRHYWEVEVGDK, 2.01; for YPCHLATEGFTSGRHYWEVEVGDK, 1.52.
Regarding YPCELATEGFTSGRHYWEVEVGDK, the protein stability index was found to be 2.88.
Turning to YPCQLATEGFTSGRHYWEVEVGDK, the protein stability index was found to be 1.46.
For YPCFLATEGFTSGRHYWEVEVGDK the value was 2.18; for YPCCLATEGFTSGRHYWEVEVGDK, 2.03.
For YPCYLATEGFTSGRHYWEVEVGDK, the protein stability index came out at 2.41.
For YPCKLATEGFTSGRHYWEVEVGDK the value was 1.79; for YPCTLATEGFTSGRHYWEVEVGDK, 1.68.
Turning to QPCVLATEGFTSGRHYWEVEVGDK, the protein stability index stood at 3.71.
For LPCVLATEGFTSGRHYWEVEVGDK the value was 2.96; for WPCVLATEGFTSGRHYWEVEVGDK, 2.74; for PPCVLATEGFTSGRHYWEVEVGDK, 4.24.
For NPCVLATEGFTSGRHYWEVEVGDK the value was 3.76.
For KPCVLATEGFTSGRHYWEVEVGDK the value was 3.15.
Consider EPCVLATEGFTSGRHYWEVEVGDK, for which the protein stability index was 3.65.
For HPCVLATEGFTSGRHYWEVEVGDK the value was 3.55; for VPCVLATEGFTSGRHYWEVEVGDK, 2.8; for GPCVLATEGFTSGRHYWEVEVGDK, 3.34.
Regarding SPCVLATEGFTSGRHYWEVEVGDK, the protein stability index stood at 3.49.
For IPCVLATEGFTSGRHYWEVEVGDK the value was 2.98; for APCVLATEGFTSGRHYWEVEVGDK, 3.11.
For RPCVLATEGFTSGRHYWEVEVGDK the value was 3.52.
As to FPCVLATEGFTSGRHYWEVEVGDK, the protein stability index turned out to be 1.59.
For DPCVLATEGFTSGRHYWEVEVGDK the value was 3.45; for TPCVLATEGFTSGRHYWEVEVGDK, 3.78.
With MPCVLATEGFTSGRHYWEVEVGDK, the protein stability index came to 3.11.
For CPCVLATEGFTSGRHYWEVEVGDK the value was 2.7; for YPCVLGTEGFTSGRHYWEVEVGDK, 2.38; for YPCVLPTEGFTSGRHYWEVEVGDK, 1.75.
For YPCVLYTEGFTSGRHYWEVEVGDK the value was 1.43.
For YPCVLFTEGFTSGRHYWEVEVGDK the value was 1.27; for YPCVLKTEGFTSGRHYWEVEVGDK, 1.59; for YPCVLVTEGFTSGRHYWEVEVGDK, 1.89.
Turning to YPCVLWTEGFTSGRHYWEVEVGDK, the protein stability index was determined as 2.16.
Consider YPCVLSTEGFTSGRHYWEVEVGDK, for which the protein stability index was 1.44.
On to YPCVLITEGFTSGRHYWEVEVGDK, for which the protein stability index is 2.09.
YPCVLHTEGFTSGRHYWEVEVGDK: the protein stability index is 1.99.
As for YPCVLQTEGFTSGRHYWEVEVGDK, the protein stability index amounted to 2.47.
In the case of YPCVLNTEGFTSGRHYWEVEVGDK, the protein stability index turned out to be 2.47.
Consider YPCVLDTEGFTSGRHYWEVEVGDK, for which the protein stability index amounted to 2.12.
For the variant YPCVLTTEGFTSGRHYWEVEVGDK, the protein stability index worked out at 3.
For YPCVLRTEGFTSGRHYWEVEVGDK the value was 1.36.
On to YPCVLETEGFTSGRHYWEVEVGDK, for which the protein stability index is 1.71.
For YPCVLLTEGFTSGRHYWEVEVGDK the value was 1.45; for YPCVLMTEGFTSGRHYWEVEVGDK, 1.4.
For YPCVLCTEGFTSGRHYWEVEVGDK the value was 1.44; for YPIVLATEGFTSGRHYWEVEVGDK, 2.41; for YPQVLATEGFTSGRHYWEVEVGDK, 1.9.
As for YPKVLATEGFTSGRHYWEVEVGDK, the protein stability index was 1.48.
YPGVLATEGFTSGRHYWEVEVGDK: the protein stability index stood at 1.98.
For YPRVLATEGFTSGRHYWEVEVGDK the value was 2.99.
For YPDVLATEGFTSGRHYWEVEVGDK the value was 1.9; for YPAVLATEGFTSGRHYWEVEVGDK, 2.05; for YPNVLATEGFTSGRHYWEVEVGDK, 1.7.
On to YPVVLATEGFTSGRHYWEVEVGDK, for which the protein stability index was 2.01.
For YPFVLATEGFTSGRHYWEVEVGDK the value was 1.86; for YPMVLATEGFTSGRHYWEVEVGDK, 1.91; for YPEVLATEGFTSGRHYWEVEVGDK, 3.41.
YPHVLATEGFTSGRHYWEVEVGDK: the protein stability index was determined as 1.98.
For YPSVLATEGFTSGRHYWEVEVGDK the value was 2; for YPTVLATEGFTSGRHYWEVEVGDK, 1.81.
For YPWVLATEGFTSGRHYWEVEVGDK, the protein stability index was determined as 1.97.
On to YPYVLATEGFTSGRHYWEVEVGDK, for which the protein stability index worked out at 1.98.
For YPLVLATEGFTSGRHYWEVEVGDK the value was 2.09.
As to YPCVLAAEGFTSGRHYWEVEVGDK, the protein stability index came out at 2.27.
For YPCVLAVEGFTSGRHYWEVEVGDK the value was 1.79; for YPCVLAKEGFTSGRHYWEVEVGDK, 2.46.
For YPCVLAEEGFTSGRHYWEVEVGDK the value was 2.16; for YPCVLACEGFTSGRHYWEVEVGDK, 1.84.
For YPCVLADEGFTSGRHYWEVEVGDK the value was 1.74; for YPCVLALEGFTSGRHYWEVEVGDK, 1.98.
As for YPCVLANEGFTSGRHYWEVEVGDK, the protein stability index was determined as 2.45.
Consider YPCVLAFEGFTSGRHYWEVEVGDK, for which the protein stability index is 2.32.
On to YPCVLASEGFTSGRHYWEVEVGDK, for which the protein stability index was 1.57.
In the case of YPCVLAGEGFTSGRHYWEVEVGDK, the protein stability index turned out to be 1.77.
Take YPCVLAYEGFTSGRHYWEVEVGDK: the protein stability index turned out to be 1.09.
Consider YPCVLAIEGFTSGRHYWEVEVGDK, for which the protein stability index was determined as 1.63.
Consider YPCVLAQEGFTSGRHYWEVEVGDK, for which the protein stability index stood at 1.56.
With YPCVLAHEGFTSGRHYWEVEVGDK, the protein stability index was 1.59.
On to YPCVLAPEGFTSGRHYWEVEVGDK, for which the protein stability index is 1.75.
As for YTCVLATEGFTSGRHYWEVEVGDK, the protein stability index stood at 2.21.
For YDCVLATEGFTSGRHYWEVEVGDK the value was 2.92; for YGCVLATEGFTSGRHYWEVEVGDK, 2.58; for YKCVLATEGFTSGRHYWEVEVGDK, 1.99.
